Laboratory results reported in paper PMC7438494, “Bedaquiline inhibits the yeast and human mitochondrial ATP synthases” (Communications Biology, 2020).

How the values were obtained:
[1] = target: the molecule itself; assay: cryo-EM structure; purified yeast F1Fo reconstituted in nanodiscs (POPC and cardiolipin, 12% by weight), incubated with BDQ (30 uM on ice 30 min, or 5 uM at room temperature 10 min); reconstruction focused on Fo at 4.2 A, whole F1Fo at 3.9 A
[2] = target: T1, subunit-a of the yeast mitochondrial F1Fo ATP synthase (S. cerevisiae, UniProt P00854 11-259); assay: as above; settings: both partners purified
T1 construct: ATP synthase subunit a (Fo sector), S. cerevisiae mitochondrial; The His6 tag of strain USY006 is on ATP2 (beta subunit), not on this chain; also called a-subunit
T1 sequence (looked up): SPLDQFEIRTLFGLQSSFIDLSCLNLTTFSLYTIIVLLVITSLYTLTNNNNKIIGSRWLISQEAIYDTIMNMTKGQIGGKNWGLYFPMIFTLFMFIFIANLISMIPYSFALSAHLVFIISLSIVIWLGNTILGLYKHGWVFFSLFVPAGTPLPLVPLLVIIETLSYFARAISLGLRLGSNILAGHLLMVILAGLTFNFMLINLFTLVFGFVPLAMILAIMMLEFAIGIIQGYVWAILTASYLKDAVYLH

B1: subunit-c of the yeast mitochondrial F1Fo ATP synthase (c10-ring) (natural protein, S. cerevisiae, UniProt P61829 1-76, looked up)
chain: MQLVLAAKYIGAGISTIGLLGAGIGIAIVFAALINGVSRNPSIKDTVFPMAILGFALSEATGLFCLMVSFLLLFGV
notes: ATP synthase subunit c (subunit 9, Fo sector), S. cerevisiae mitochondrial; as modelled in PDB 6WTD (chains Q and R are two of the ten copies; initial model PDB 6CP7); also called c-subunit; c-ring; copies: 10
[1]
  stoichiometry N: 10
[2]
  binding result: binds
